# Patent US20210388087A1 (Chugai, published 2021)
# Target: T1, Human CD137 ECD (human)
# T1 construct: entry includes C-terminal His-tag and biotin acceptor peptide; also called human CD137 extracellular domain; 4-1BB
# Assay: Biacore SPR, vs parent H183/L072
# T1 sequence (chain, as listed by the source limits assumed): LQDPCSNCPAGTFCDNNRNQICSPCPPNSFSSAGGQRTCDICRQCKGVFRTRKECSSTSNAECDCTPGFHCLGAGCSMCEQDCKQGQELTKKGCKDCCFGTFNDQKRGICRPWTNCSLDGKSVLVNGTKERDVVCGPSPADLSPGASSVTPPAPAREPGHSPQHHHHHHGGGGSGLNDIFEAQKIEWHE
row,Binder,fold change of affinity [fold]
1,"H183/L072 VL H27dL (antibody, name in Kabat numbering, V domains shown, Dual-Ig) VH: QVQLVESGGGLVQPGRSLRLSCAASGFTFSNAWMHWVRQAPGKGLEWVAQIKDKGNAYAAYYAPSVKGRFTISRDDSKNSIYLQMNSLKTEDTAVYYCHYVHYASASTVLPAFGVDAWGQGTTVTVSS VL: DIVMTQSPLSLPVTPGEPASISCQASQELVLMNRNTYLHWYQQKPGQAPRLLIYKVSNRFPGVPDRFSGSGSGTDFTLKISRVEAEDVGVYYCAQGTSVPFTFGQGTKLEIK",0.6
2,"H183/L072 VL H27dM (antibody, name in Kabat numbering, V domains shown, Dual-Ig) VH: QVQLVESGGGLVQPGRSLRLSCAASGFTFSNAWMHWVRQAPGKGLEWVAQIKDKGNAYAAYYAPSVKGRFTISRDDSKNSIYLQMNSLKTEDTAVYYCHYVHYASASTVLPAFGVDAWGQGTTVTVSS VL: DIVMTQSPLSLPVTPGEPASISCQASQELVMMNRNTYLHWYQQKPGQAPRLLIYKVSNRFPGVPDRFSGSGSGTDFTLKISRVEAEDVGVYYCAQGTSVPFTFGQGTKLEIK",0.6
3,"H183/L072 VL H27dS (antibody, name in Kabat numbering, V domains shown, Dual-Ig) VH: QVQLVESGGGLVQPGRSLRLSCAASGFTFSNAWMHWVRQAPGKGLEWVAQIKDKGNAYAAYYAPSVKGRFTISRDDSKNSIYLQMNSLKTEDTAVYYCHYVHYASASTVLPAFGVDAWGQGTTVTVSS VL: DIVMTQSPLSLPVTPGEPASISCQASQELVSMNRNTYLHWYQQKPGQAPRLLIYKVSNRFPGVPDRFSGSGSGTDFTLKISRVEAEDVGVYYCAQGTSVPFTFGQGTKLEIK",0.6
4,"H183/L072 VL H34I (antibody, name in Kabat numbering, V domains shown, Dual-Ig) VH: QVQLVESGGGLVQPGRSLRLSCAASGFTFSNAWMHWVRQAPGKGLEWVAQIKDKGNAYAAYYAPSVKGRFTISRDDSKNSIYLQMNSLKTEDTAVYYCHYVHYASASTVLPAFGVDAWGQGTTVTVSS VL: DIVMTQSPLSLPVTPGEPASISCQASQELVHMNRNTYLIWYQQKPGQAPRLLIYKVSNRFPGVPDRFSGSGSGTDFTLKISRVEAEDVGVYYCAQGTSVPFTFGQGTKLEIK",0
5,"H183/L072 VL H27dT (antibody, name in Kabat numbering, V domains shown, Dual-Ig) VH: QVQLVESGGGLVQPGRSLRLSCAASGFTFSNAWMHWVRQAPGKGLEWVAQIKDKGNAYAAYYAPSVKGRFTISRDDSKNSIYLQMNSLKTEDTAVYYCHYVHYASASTVLPAFGVDAWGQGTTVTVSS VL: DIVMTQSPLSLPVTPGEPASISCQASQELVTMNRNTYLHWYQQKPGQAPRLLIYKVSNRFPGVPDRFSGSGSGTDFTLKISRVEAEDVGVYYCAQGTSVPFTFGQGTKLEIK",0.6
6,"H183/L072 VL K50E (antibody, name in Kabat numbering, V domains shown, Dual-Ig) VH: QVQLVESGGGLVQPGRSLRLSCAASGFTFSNAWMHWVRQAPGKGLEWVAQIKDKGNAYAAYYAPSVKGRFTISRDDSKNSIYLQMNSLKTEDTAVYYCHYVHYASASTVLPAFGVDAWGQGTTVTVSS VL: DIVMTQSPLSLPVTPGEPASISCQASQELVHMNRNTYLHWYQQKPGQAPRLLIYEVSNRFPGVPDRFSGSGSGTDFTLKISRVEAEDVGVYYCAQGTSVPFTFGQGTKLEIK",0
7,"H183/L072 VL H27dR (antibody, name in Kabat numbering, V domains shown, Dual-Ig) VH: QVQLVESGGGLVQPGRSLRLSCAASGFTFSNAWMHWVRQAPGKGLEWVAQIKDKGNAYAAYYAPSVKGRFTISRDDSKNSIYLQMNSLKTEDTAVYYCHYVHYASASTVLPAFGVDAWGQGTTVTVSS VL: DIVMTQSPLSLPVTPGEPASISCQASQELVRMNRNTYLHWYQQKPGQAPRLLIYKVSNRFPGVPDRFSGSGSGTDFTLKISRVEAEDVGVYYCAQGTSVPFTFGQGTKLEIK",0.6
8,"H183/L072 VL H27dY (antibody, name in Kabat numbering, V domains shown, Dual-Ig) VH: QVQLVESGGGLVQPGRSLRLSCAASGFTFSNAWMHWVRQAPGKGLEWVAQIKDKGNAYAAYYAPSVKGRFTISRDDSKNSIYLQMNSLKTEDTAVYYCHYVHYASASTVLPAFGVDAWGQGTTVTVSS VL: DIVMTQSPLSLPVTPGEPASISCQASQELVYMNRNTYLHWYQQKPGQAPRLLIYKVSNRFPGVPDRFSGSGSGTDFTLKISRVEAEDVGVYYCAQGTSVPFTFGQGTKLEIK",0.5
9,"H183/L072 VL H27dN (antibody, name in Kabat numbering, V domains shown, Dual-Ig) VH: QVQLVESGGGLVQPGRSLRLSCAASGFTFSNAWMHWVRQAPGKGLEWVAQIKDKGNAYAAYYAPSVKGRFTISRDDSKNSIYLQMNSLKTEDTAVYYCHYVHYASASTVLPAFGVDAWGQGTTVTVSS VL: DIVMTQSPLSLPVTPGEPASISCQASQELVNMNRNTYLHWYQQKPGQAPRLLIYKVSNRFPGVPDRFSGSGSGTDFTLKISRVEAEDVGVYYCAQGTSVPFTFGQGTKLEIK",0.5
10,"H183/L072 VL K50A (antibody, name in Kabat numbering, V domains shown, Dual-Ig) VH: QVQLVESGGGLVQPGRSLRLSCAASGFTFSNAWMHWVRQAPGKGLEWVAQIKDKGNAYAAYYAPSVKGRFTISRDDSKNSIYLQMNSLKTEDTAVYYCHYVHYASASTVLPAFGVDAWGQGTTVTVSS VL: DIVMTQSPLSLPVTPGEPASISCQASQELVHMNRNTYLHWYQQKPGQAPRLLIYAVSNRFPGVPDRFSGSGSGTDFTLKISRVEAEDVGVYYCAQGTSVPFTFGQGTKLEIK",0.1
11,"H183/L072 VL H34L (antibody, name in Kabat numbering, V domains shown, Dual-Ig) VH: QVQLVESGGGLVQPGRSLRLSCAASGFTFSNAWMHWVRQAPGKGLEWVAQIKDKGNAYAAYYAPSVKGRFTISRDDSKNSIYLQMNSLKTEDTAVYYCHYVHYASASTVLPAFGVDAWGQGTTVTVSS VL: DIVMTQSPLSLPVTPGEPASISCQASQELVHMNRNTYLLWYQQKPGQAPRLLIYKVSNRFPGVPDRFSGSGSGTDFTLKISRVEAEDVGVYYCAQGTSVPFTFGQGTKLEIK",0.1
12,"H183/L072 VL K50F (antibody, name in Kabat numbering, V domains shown, Dual-Ig) VH: QVQLVESGGGLVQPGRSLRLSCAASGFTFSNAWMHWVRQAPGKGLEWVAQIKDKGNAYAAYYAPSVKGRFTISRDDSKNSIYLQMNSLKTEDTAVYYCHYVHYASASTVLPAFGVDAWGQGTTVTVSS VL: DIVMTQSPLSLPVTPGEPASISCQASQELVHMNRNTYLHWYQQKPGQAPRLLIYFVSNRFPGVPDRFSGSGSGTDFTLKISRVEAEDVGVYYCAQGTSVPFTFGQGTKLEIK",0.1
13,"H183/L072 VL H27dP (antibody, name in Kabat numbering, V domains shown, Dual-Ig) VH: QVQLVESGGGLVQPGRSLRLSCAASGFTFSNAWMHWVRQAPGKGLEWVAQIKDKGNAYAAYYAPSVKGRFTISRDDSKNSIYLQMNSLKTEDTAVYYCHYVHYASASTVLPAFGVDAWGQGTTVTVSS VL: DIVMTQSPLSLPVTPGEPASISCQASQELVPMNRNTYLHWYQQKPGQAPRLLIYKVSNRFPGVPDRFSGSGSGTDFTLKISRVEAEDVGVYYCAQGTSVPFTFGQGTKLEIK",0.8
14,"H183/L072 VL K50D (antibody, name in Kabat numbering, V domains shown, Dual-Ig) VH: QVQLVESGGGLVQPGRSLRLSCAASGFTFSNAWMHWVRQAPGKGLEWVAQIKDKGNAYAAYYAPSVKGRFTISRDDSKNSIYLQMNSLKTEDTAVYYCHYVHYASASTVLPAFGVDAWGQGTTVTVSS VL: DIVMTQSPLSLPVTPGEPASISCQASQELVHMNRNTYLHWYQQKPGQAPRLLIYDVSNRFPGVPDRFSGSGSGTDFTLKISRVEAEDVGVYYCAQGTSVPFTFGQGTKLEIK",0
15,"H183/L072 VL H34V (antibody, name in Kabat numbering, V domains shown, Dual-Ig) VH: QVQLVESGGGLVQPGRSLRLSCAASGFTFSNAWMHWVRQAPGKGLEWVAQIKDKGNAYAAYYAPSVKGRFTISRDDSKNSIYLQMNSLKTEDTAVYYCHYVHYASASTVLPAFGVDAWGQGTTVTVSS VL: DIVMTQSPLSLPVTPGEPASISCQASQELVHMNRNTYLVWYQQKPGQAPRLLIYKVSNRFPGVPDRFSGSGSGTDFTLKISRVEAEDVGVYYCAQGTSVPFTFGQGTKLEIK",0
16,"H183/L072 VL H27dQ (antibody, name in Kabat numbering, V domains shown, Dual-Ig) VH: QVQLVESGGGLVQPGRSLRLSCAASGFTFSNAWMHWVRQAPGKGLEWVAQIKDKGNAYAAYYAPSVKGRFTISRDDSKNSIYLQMNSLKTEDTAVYYCHYVHYASASTVLPAFGVDAWGQGTTVTVSS VL: DIVMTQSPLSLPVTPGEPASISCQASQELVQMNRNTYLHWYQQKPGQAPRLLIYKVSNRFPGVPDRFSGSGSGTDFTLKISRVEAEDVGVYYCAQGTSVPFTFGQGTKLEIK",0.6
17,"H183/L072 VL H34P (antibody, name in Kabat numbering, V domains shown, Dual-Ig) VH: QVQLVESGGGLVQPGRSLRLSCAASGFTFSNAWMHWVRQAPGKGLEWVAQIKDKGNAYAAYYAPSVKGRFTISRDDSKNSIYLQMNSLKTEDTAVYYCHYVHYASASTVLPAFGVDAWGQGTTVTVSS VL: DIVMTQSPLSLPVTPGEPASISCQASQELVHMNRNTYLPWYQQKPGQAPRLLIYKVSNRFPGVPDRFSGSGSGTDFTLKISRVEAEDVGVYYCAQGTSVPFTFGQGTKLEIK",0
18,"H183/L072 VL H27dV (antibody, name in Kabat numbering, V domains shown, Dual-Ig) VH: QVQLVESGGGLVQPGRSLRLSCAASGFTFSNAWMHWVRQAPGKGLEWVAQIKDKGNAYAAYYAPSVKGRFTISRDDSKNSIYLQMNSLKTEDTAVYYCHYVHYASASTVLPAFGVDAWGQGTTVTVSS VL: DIVMTQSPLSLPVTPGEPASISCQASQELVVMNRNTYLHWYQQKPGQAPRLLIYKVSNRFPGVPDRFSGSGSGTDFTLKISRVEAEDVGVYYCAQGTSVPFTFGQGTKLEIK",0.7
19,"H183/L072 VL H34M (antibody, name in Kabat numbering, V domains shown, Dual-Ig) VH: QVQLVESGGGLVQPGRSLRLSCAASGFTFSNAWMHWVRQAPGKGLEWVAQIKDKGNAYAAYYAPSVKGRFTISRDDSKNSIYLQMNSLKTEDTAVYYCHYVHYASASTVLPAFGVDAWGQGTTVTVSS VL: DIVMTQSPLSLPVTPGEPASISCQASQELVHMNRNTYLMWYQQKPGQAPRLLIYKVSNRFPGVPDRFSGSGSGTDFTLKISRVEAEDVGVYYCAQGTSVPFTFGQGTKLEIK",0
20,"H183/L072 VL H27dW (antibody, name in Kabat numbering, V domains shown, Dual-Ig) VH: QVQLVESGGGLVQPGRSLRLSCAASGFTFSNAWMHWVRQAPGKGLEWVAQIKDKGNAYAAYYAPSVKGRFTISRDDSKNSIYLQMNSLKTEDTAVYYCHYVHYASASTVLPAFGVDAWGQGTTVTVSS VL: DIVMTQSPLSLPVTPGEPASISCQASQELVWMNRNTYLHWYQQKPGQAPRLLIYKVSNRFPGVPDRFSGSGSGTDFTLKISRVEAEDVGVYYCAQGTSVPFTFGQGTKLEIK",0.5
